# Results as given in the DeepSol protein solubility set.
# Assay: soluble on expression in E. coli; label from the status in PepcDB or PDB records
row,Sequence,soluble on expression in E. coli
1,TVSVLLPFVATEFYRRLVEGIEGVLLEQRYDLALFPILSLARLKRYLENTTLAYLTDGLILASYDLTERFEEGRLPTERPVVLVDAQNPRYDSVYLDNRLGGRLAGAYLARFPGPIFAIAVEEEPDRAFRRTVFAERMAGFQEALKEAGRPFSPDRLYITRHSQEGGRLALRHFLEKASPPLNVFAGADQVALGVLEEAVRLGLTPGRDVRVLGFDGHPFAEEAGLSTIAQPVEAMGARAAQLLLERMRGYQGPPREVRFEPVLVERASTGTPPAA,soluble
2,VDLNALADLPLTYPEVGATATGRLPAGYNHLDVSTQIGTGRQRFEQAADAVMHWGMQRNAGLRVRASSETAVVSAVVLVGIAFLRAPCRVVYVIDEPDVRGFGYGTLPGHPVSGEERFAVRCDPMTSVVFAEVLSFSRPATWASKAAGPLGAVTQRFIAQRYLRAV,not soluble
3,VDMSNVVKTYDLQDGSKVHVFKDGKMGMENKFGKSMNMPEGKVMETRDGTKIIMKGNEIFRLDEALRKGHSEGG,soluble
4,VEGAVKTEPVDLFHPGFLNSSNYRIPALFKTKEGTLIASIDARRHGGADAPNNDIDTAVRRSEDGGKTWDEGQIIMDYPDKSSVIDTTLIQDDETGRIFLLVTHFPSKYGFWNAGLGSGFKNIDGKEYLCLYDSSGKEFTVRENVVYDKDSNKTEYTTNALGDLFKNGTKIDNINSSTAPLKAKGTSYINLVYSDDDGKTWSEPQNINFQVKKDWMKFLGIAPGRGIQIKNGEHKGRIVVPVYYTNEKGKQSSAVIYSDDSGKNWTIGESPNDNRKLENGKIINSKTLSDDAPQLTECQVVEMPNGQLKLFMRNLSGYLNIATSFDGGATWDETVEKDTNVLEPYCQLSVINYSQKVDGKDAVIFSNPNARSRSNGTVRIGLINQVGTYENGEPKYEFDWKYNKLVKPGYYAYSCLTELSNGNIGLLYEGTPSEEMSYIEMNLKYLESGANK,soluble
5,VEREVLMNGTQAVAHAAMYADVDVVAAYPIRPYTEVMDTISKLIADGELDAEFIVAEGEHGQFETVKHASLAGARTLVGSSGVGWLYAMEAIVVTATDRAPVVAIIGNRALDDPGAYGVEHNDALMVRDVGWLLVWVDTAQEAFDTALLAYRIAEDQRVLLPLGISMDGGFLTHSEQIVRLPPRELVKNFLPPYNRGKYLVHPDNPITVAPQVNEDWVMEIRRQHEEAMERARSVIVEAYEEFKKVFGRYPGSTSDLQMPE,not soluble
6,VGRATQSAKELDVKIKNVIRNVHILLKQISGTDGEGNNVPSGDFSREWAEAQRMMRELRNRNFGKHLREAEADKRESQLLLNRIRTWQKTHQGENNGLANSIRDSLNEYEAKLSDLRARLQEAAAQAKQANGLNQENERALGAIQRQVKEINSLQSDFTKYLTTADSSLLQTNIALQLMEKSQKEYEKLAASLNEARQELSDKVRELSRSAGKTSLVEEAEKHARSLQELAKQLEEIKRNASGDELVRCAVDAATAYENILNAIKAAEDAANRAASASESALQTVIKEDLPRKAKTLSSNSDKLLNEAKMTQKKLKQEVSPALNNLQQTLNIVTVQKEVIDTNLTTLRDGLHGIQRGDIDAMISSAKSMVRKANDITDEVLDGLNPIQTDVERIKDTYGRTQNEDFKKALTDADNSVNKLTNKLPDLWRKIESINQQLLPLGNISDNMDRIRELIQQARDAASKVAVPMRFNGKSGVEVRLPNDLEDLKGYTSLSLFLQRPNSRENGGTENMFVMYLGNKDASRDYIGMAVVDGQLTCVYNLGDREAELQVDQILTKSETKEAVMDRVKFQRIYQFARLNYTKGATSSKPETPGVYDMDGRNSNTLLNLDPENVVFYVGGYPPDFKLPSRLSFPPYKGCIELDDLNENVLSLYNFKKTFNLNTTEVEPCRRRKEESDKNYFEGTGYARVPTQPHAPIPTFGQTIQTTVDRGLLFFAENGDRFISLNIEDGKLMVRYKLNSELPKERGVGDAINNGRDHSIQIKIGKLQKRMWINVDVQNTIIDGEVFDFSTYYLGGIPIAIRERFNISTPAFRGCMKNLKKTSGVVRLNDTVGVTKKCSEDWKLVRSASFSRGGQLSFTDLGLPPTDHLQASFGFQTFQPSGILLDHQTWTRNLQVTLEDGYIELSTSDSGGPIFKSPQTYMDGLLHYVSVISDNSGLRLLIDDQLLRNSKRLKHISSSRQSLRLGGSNFEGCISNVFVQRLSLSPEVLDLTSNSLKRDVSLGGCSLNKPPFLMLLKGSTRFNKTKTFRINQLLQDTPVASPRSVKVWQDACSPLPKTQANHGALQFGDIPTSHLLFKLPQELLKPRSQFAVDMQTTSSRGLVFHTGTKNSFMALYLSKGRLVFALGTDGKKLRIKSKEKCNDGKWHTVVFGHDGEKGRLVVDGLRAREGSLPGNSTISIRAPVYLGSPPSGKPKSLPTNSFVGCLKNFQLDSKPLYTPSSSFGVSSCLGGPLEKGIYFSEEGGHVVLAHSVLLGPEFKLVFSIRPRSLTGILIHIGSQPGKHLCVYLEAGKVTASMDSGAGGTSTSVTPKQSLCDGQWHSVAVTIKQHILHLELDTDSSYTAGQIPFPPASTQEPLHLGGAPANLTTLRIPVWKSFFGCLRNIHVNHIPVPVTEALEVQGPVSLNGCPDQ,soluble
7,VGVAVDRDELLGANAPPQGGSFRFYLDGERWEWSDSVARMHGYQPGEVIPTNEILLSHKHPDDQSQVAALFDKMIHAGEPFSSKHRIIDTDRRIHHVIVVGDRMLDENGQVIGTSGYYIDVTETLETDLREFNEALTEAVAGLEKSRAVIEQAKGALMLVYGISSERAFGILTWRSQETNIKLHTLAERFVGALAAEATLPASFRARFDHLLLTAHEYPDEQADHPA,not soluble
8,VGYGDITQVETSGASSKTSRQDKLEYDGVRASHTMAQTDAGRMEKYKSFINNVAKKHVVDPAVIAAIISRESRAGNVIFNTTPPGWGDNYNGFGLMQVDKRYHEPRGAWNSEEHIDQATGILVNFIQLIQKKFPSWSTEQQLKGAIAAYNTGDGRVESYESVDSRTTGKDYSNDVVARAQWYKKNGF,soluble
9,VHADLAATTSREDFRLLAAEHRVVPVTRKVLADSETPLSAYRKLAANRPGTFLLESAENGRSWSRWSFIGAGAPTALTVREGQAVWLGAVPKDAPTGGDPLRALQVTLELLATADRQSEPGLPPLSGGMVGFFAYDMVRRLERLPERAVDDLCLPDMLLLLATDVAAVDHHEGTITLIANAVNWNGTDERVDWAYDDAVARLDVMTAALGQPLPSTVATFSRPEPRHRAQRTVEEYGAIVEYLVDQIAAGEAFQVVPSQRFEMDTDVDPIDVYRILRVTNPSPYMYLLQVPNSDGAVDFSIVGSSPEALVTVHEGWATTHPIAGTRWRGRTDDEDVLLEKELLADDKERAEHLMLVDLGRNDLGRVCTPGTVRVEDYSHIERYSHVMHLVSTVTGKLGEGRTALDAVTACFPAGTLSGAPKVRAMELIEEVEKTRRGLYGGVVGYLDFAGNADFAIAIRTALMRNGTAYVQAGGGVVADSNGSYEYNEARNKARAVLNAIAAAETLAAPGANRSGC,soluble
10,VHYGLKGITCVETSISHIDGEKGRLIYRGHHAKDIALNHSFEEAAYLILFGKLPSTEELQVFKDKLAAERNLPEHIERLIQSLPNNMDDMSVLRTVVSALGENTYTFHPKTEEAIRLIAITPSIIAYRKRWTRGEQAIAPSSQYGHVENYYYMLTGEQPSEAKKKALETYMILATEHGMNASTFSARVTLSTESDLVSAVTAALGTMKGPLHGGAPSAVTKMLEDIGEKEHAEAYLKEKLEKGERLMGFGHRVYKTKDPRAEALRQKAEEVAGNDRDLDLALHVEAEAIRLLEIYKPGRKLYTNVEFYAAAVMRAIDFDDELFTPTFSASRMVGWCAHVLEQAENNMIFRPSAQYTGAIPEEV,soluble
11,VIDALRNNNDYEPYNKDSNNQAFNSEEITRFFSIGKYTYPSIFSELNFIINAREAFVSIQTSTIPKTAYAAVNFVETQGEDESYTDSLSTDNKRDIYADFAVIEIPLFLTNHRDYQVFNEFIKPAIETYKQLGNSSFEKKQLDQHKNDNFYMLGYPLVESSIDALILNQRRQYNNSYTEKYTPQTLTKDQRTIDLSREVPTLIQNKTENSTGSQLLVNQSLSSTSEGIIE,not soluble
12,VIIDTSALLAYFDAAEPDHAAVSECIDSSADALVVSPYVVAELDYLVATRVGVDAELAVLRELAGGAWELANCGAAEIEQAARIVTKYQDQRIGIADAANVVLADRYRTRTILTLDRRHFSALRPIGGGRFTVIP,not soluble
13,VKSNAQIDSVKCFSTMNDEEIVEDSRAGDDRALEYLINKYKGFVRAKARTYFLIGADREDIIQEGMIGLYKAIRDFRKDKLSSFRAFAELCITRQIITAIKTATRQKHIPLNSYVSLNKPIFDEESDRTLMDIISEESINDPEEMVINREEFSGIEAKMGEILSSLECEVLTSYLQGKSYQEIAVELDRHVKSIDNALQRVKRKLEKYLEESRI,soluble
